Measured values: the RNAGym collection of RNA variant scans (doi:10.7554/elife.80360)

B1: CPEB3 Ribozyme (parent)
chain: GGGGGCCACAGCAGAAGCGUUCACGUCGCGGCCCCUGUCAGAUUCUGGUGAAUCUGCGAAUUCUGCUGU

Variants of: B1
Assay: self-cleavage, relative activity (ratio to wild type); higher = more cleavage; co-transcriptional

Variant | self-cleavage
GGGGGCCACUGCAGAAGCGUUCACGUCGCGGCCCCUUUCAGAUUCUGGUGAAUCUGCGAAUUCUGCUGU [A10U G37U] | 0.203
GGGGGCCACUGCAGAAGCGUUCACGUCGCGGCCCCUAUCAGAUUCUGGUGAAUCUGCGAAUUCUGCUGU [A10U G37A] | 0.322
GGGGGCCACUGCAGAAGCGUUCAUGUCGCGGCCCCUGUCAGAUUCUGGUGAAUCUGCGAAUUCUGCUGU [A10U C24U] | 0.82
GGGGGCCACUGCACAAGCGUUCACGUCGCGGCCCCUGUCAGAUUCUGGUGAAUCUGCGAAUUCUGCUGU [A10U G14C] | 0.482
GGGGGCCACUGCAAAAGCGUUCACGUCGCGGCCCCUGUCAGAUUCUGGUGAAUCUGCGAAUUCUGCUGU [A10U G14A] | 0.622
GGGGGCCACUGCAGAAGCGUUCACGUCGCGGCCCCUGUCAGAUUCUGGUGAAUCUGUGAAUUCUGCUGU [A10U C57U] | 0.369
GGGGGCCACUGCAGAAGCGUUCACGUCGCGGCCCCUGUCAGAUUCUGGUGAAUCUGGGAAUUCUGCUGU [A10U C57G] | 0.307
GGGGGCCACUGCAGAAGCGUUCACGUCGCGGCCCCUGUCAGAUUCUCGUGAAUCUGCGAAUUCUGCUGU [A10U G47C] | 0.991
GGGGGCCACUGCAGAAGCGUUCACGUCGCGGCCCCUGUCAGAUUCUUGUGAAUCUGCGAAUUCUGCUGU [A10U G47U] | 0.962
GGGGGCCACUGCAGAAGCGUUCACGUCGCGGCCCCUGUCAGAUUCUAGUGAAUCUGCGAAUUCUGCUGU [A10U G47A] | 1.03
GGGGGCCACUGCAGAAGCCUUCACGUCGCGGCCCCUGUCAGAUUCUGGUGAAUCUGCGAAUUCUGCUGU [A10U G19C] | 0.119
GGGGGCCACUGCAGAAGCAUUCACGUCGCGGCCCCUGUCAGAUUCUGGUGAAUCUGCGAAUUCUGCUGU [A10U G19A] | 0.15
GGGGGCCACUGCAGAAGCUUUCACGUCGCGGCCCCUGUCAGAUUCUGGUGAAUCUGCGAAUUCUGCUGU [A10U G19U] | 0.589
GGGGGCCACUGCAGAAGCGUUCACGUGGCGGCCCCUGUCAGAUUCUGGUGAAUCUGCGAAUUCUGCUGU [A10U C27G] | 0.17
GGGGGCCACUGCAGAAGCGUUCACGUCGCGGCCCCUGUCAGAUUCUGUUGAAUCUGCGAAUUCUGCUGU [A10U G48U] | 1
GGGGGCCACUGCAGAAGCGUUCACGUCGCGGCCCCUGUCAGAUUCUGGUGAAUCUGCGAAUUCUCCUGU [A10U G65C] | 0.627
GGGGGCCACUGCAGAAGCGUUCACGUCGCGCCCCCUGUCAGAUUCUGGUGAAUCUGCGAAUUCUGCUGU [A10U G31C] | 0.262
GGGGGCCACUGCAGAAGCGUUCACGUCGCGGCCCCUGUCAGAUUCUGGUGAAACUGCGAAUUCUGCUGU [A10U U53A] | 0.981
GGGGGCCACUGCAGAAGCGUUCACGUCGCGGCCCCUGUCAGAUUCUGGUGAAGCUGCGAAUUCUGCUGU [A10U U53G] | 0.902
GGGGGCCACUGCAGAAGCGUUCACGUCGCGGCCCCUGUCAGAUUCUGGUGAAUCUGCGAAUUCUGCCGU [A10U U67C] | 1
GGGGGCCACUGCAGAAGCGUUCACGUCGCGGCCCCUGUCAGAUUCUGGUGAAUCUGCGAAUUGUGCUGU [A10U C63G] | 0.591
GGGGGCCACUGCAGAAGCGUUCACGUCGCGGCCCCUGUCAGAUUCUGGUGAAUCUGCGAAUUAUGCUGU [A10U C63A] | 0.825
GGGGGCCACUGCAGAAGCGUUCACGUCGCGGCACCUGUCAGAUUCUGGUGAAUCUGCGAAUUCUGCUGU [A10U C33A] | 0.977
GGGGGCCACUGCAGAAGCGUUCACGUCGCGGCGCCUGUCAGAUUCUGGUGAAUCUGCGAAUUCUGCUGU [A10U C33G] | 0.922
GGGGGCCACUGCAGAAGCGUUCACGUCGCGGCUCCUGUCAGAUUCUGGUGAAUCUGCGAAUUCUGCUGU [A10U C33U] | 0.971
GGGGGCCACUGCAGAAGCGUUCACGUCGCGGCCCCUGUCAGAUUCUGGUGAAUCUGCGAAUUCCGCUGU [A10U U64C] | 0.778

Variant | self-cleavage
GGGGGCCACUGCAGAAGCGUUCACGUCGCGGCCCCUGUCAAAUUCUGGUGAAUCUGCGAAUUCUGCUGU [A10U G41A] | 0.844
GGGGGCCACUGCAGAAGCGUUCACGUCGCGGCCCCUGUCAUAUUCUGGUGAAUCUGCGAAUUCUGCUGU [A10U G41U] | 0.86
GGGGGCCACUGCAGAAGCGUUCACGUCGCGGACCCUGUCAGAUUCUGGUGAAUCUGCGAAUUCUGCUGU [A10U C32A] | 0.93
GGGGGCCACUGCAGAAGCGUUCACGUCGCGGUCCCUGUCAGAUUCUGGUGAAUCUGCGAAUUCUGCUGU [A10U C32U] | 1.02
GGGGGCCACUGCAGAAGCGUUCACGUCGCGGGCCCUGUCAGAUUCUGGUGAAUCUGCGAAUUCUGCUGU [A10U C32G] | 0.64
GGGGGCCACUGCAGAAGCGUUCACGUCGCGGCCCCUGUCAGAUUCUGGUGAAUCUGCUAAUUCUGCUGU [A10U G58U] | 0.984
GGGGGCCACUGCAGAAGCGUUCACGUCGCGGCCCCUGUCAGAUUCUGGUGAAUCUGCCAAUUCUGCUGU [A10U G58C] | 1.02
GGGGGCCACUGCAGAAGCGUUCACGUCGCGGCCCCUGUCAGAUCCUGGUGAAUCUGCGAAUUCUGCUGU [A10U U44C] | 0.949
GGGGGCCACUGCAGAAGCGUUCACGUCGCGGCCCCUGUCAGAUGCUGGUGAAUCUGCGAAUUCUGCUGU [A10U U44G] | 0.928
GGGGGCCACUGCAGAAGCGUUCACGUCGCGGCCCUUGUCAGAUUCUGGUGAAUCUGCGAAUUCUGCUGU [A10U C35U] | 0.976
GGGGGCCACUGCAGAAGCGUUCACGUCGCGGCCCCUGUCAGAUUCUGGUGAAUCUGCGAAUGCUGCUGU [A10U U62G] | 0.896
GGGGGCCACUGCAGAAGCGUUCACGUCGCGGCCCCUGUCAGAUUCUGGGGAAUCUGCGAAUUCUGCUGU [A10U U49G] | 1.01
GGGGGCCACUGCAGAAGCGUUCACGUCGCGGCCCCUGUCAGAUUCUGGAGAAUCUGCGAAUUCUGCUGU [A10U U49A] | 0.989
GGGGGCCACUGCAGAAGCGUUCACGUCGCGGCCCCUGUCAGAUUCUGGCGAAUCUGCGAAUUCUGCUGU [A10U U49C] | 1
GGGGGCCACUGCAGAAGCGUUCACGUCGCGGCCCCUGUCAGAUUCUGGUGAAUCUGCGAACUCUGCUGU [A10U U61C] | 0.781
GGGGGCCACUGCAGAAGCGUUCACGUCGGGGCCCCUGUCAGAUUCUGGUGAAUCUGCGAAUUCUGCUGU [A10U C29G] | 0.431
GGGGGCCACUGCAGAAGCGUUCACGUCGUGGCCCCUGUCAGAUUCUGGUGAAUCUGCGAAUUCUGCUGU [A10U C29U] | 0.361
GGGGGCCACUGCAGAAGCGUCCACGUCGCGGCCCCUGUCAGAUUCUGGUGAAUCUGCGAAUUCUGCUGU [A10U U21C] | 0.912
GGGGGCCACUGCAGAAGCGUGCACGUCGCGGCCCCUGUCAGAUUCUGGUGAAUCUGCGAAUUCUGCUGU [A10U U21G] | 0.581
GGGGGCCACUGCAGAAGCGUACACGUCGCGGCCCCUGUCAGAUUCUGGUGAAUCUGCGAAUUCUGCUGU [A10U U21A] | 1
GGGGGCCACUGCAGAAGCGUUCACGUCGCGGCCCCUGUCAGAUUUUGGUGAAUCUGCGAAUUCUGCUGU [A10U C45U] | 0.958
GGGGGCCACUGCAGAAGCGUUCACGUCGCGGCCCCUGUCAGAUUAUGGUGAAUCUGCGAAUUCUGCUGU [A10U C45A] | 0.998
GGGGGCCACUGCAGAAGCGUUCACGUCGCGGCCCCUGUUAGAUUCUGGUGAAUCUGCGAAUUCUGCUGU [A10U C39U] | 0.984
GGGGGCCACUGCAGAAGCGUUCACGUCGCGGCCCCUGUAAGAUUCUGGUGAAUCUGCGAAUUCUGCUGU [A10U C39A] | 0.84
GGGGGCCACUGCAGAAGCGUUCACGUCGCGGCCCCUGUGAGAUUCUGGUGAAUCUGCGAAUUCUGCUGU [A10U C39G] | 0.913
GGGGGCCACUGCAGAAGCGUUCACGUCGCGGCCCCUGUCAGAUUCUGGUGAAUCAGCGAAUUCUGCUGU [A10U U55A] | 0.888

Variant | self-cleavage
GGGGGCCACUGCAGAAGCGUUCACGUCGCGGCCCCUGUCAGAUUCUGGUGAAUCGGCGAAUUCUGCUGU [A10U U55G] | 0.888
GGGGGCCACUGCAGAAGCGUUCACGUCGCGGCCCCUGACAGAUUCUGGUGAAUCUGCGAAUUCUGCUGU [A10U U38A] | 0.959
GGGGGCCACUGCAGAAGCGUUCACGUCGCGGCCCCUGCCAGAUUCUGGUGAAUCUGCGAAUUCUGCUGU [A10U U38C] | 0.99
GGGGGCCACUGCAGAAGCGUUCACGUCGCGGCCCCUGGCAGAUUCUGGUGAAUCUGCGAAUUCUGCUGU [A10U U38G] | 0.154
GGGGGCCACUGCAGAAGCGUUCACGUCGCAGCCCCUGUCAGAUUCUGGUGAAUCUGCGAAUUCUGCUGU [A10U G30A] | 0.922
GGGGGCCACUGCAGAAGCGUUCACGUCGCCGCCCCUGUCAGAUUCUGGUGAAUCUGCGAAUUCUGCUGU [A10U G30C] | 0.992
GGGGGCCACUGCAGAAGCGUUCACGUCGCGGCCCCUGUCAGAUUCUGGUGAAUCUCCGAAUUCUGCUGU [A10U G56C] | 0.84
GGGGGCCACUUCAGAAGCGUUCACGUCGCGGCCCCUGUCAGAUUCUGGUGAAUCUGCGAAUUCUGCUGU [A10U G11U] | 0.908
GGGGGCCACUGCAGAAGCGUUCACGUCGCGGCCCCUGUCAGAUUCUGGUGAAUCUGCGAAUUCUGCUCU [A10U G68C] | 1.05
GGGGGCCACUGCAGAAGCGUUCACGUCGCGGCCACUGUCAGAUUCUGGUGAAUCUGCGAAUUCUGCUGU [A10U C34A] | 0.983
GGGGGCCACUGCAGAAGCGUUCACGUCGCGGCCGCUGUCAGAUUCUGGUGAAUCUGCGAAUUCUGCUGU [A10U C34G] | 1.01
GGGGGCCACUGCAGAAGCGUUCACGUCGCGGCCCCAGUCAGAUUCUGGUGAAUCUGCGAAUUCUGCUGU [A10U U36A] | 0.291
GGGGGCCACUGCAGAAGCGUUCACGACGCGGCCCCUGUCAGAUUCUGGUGAAUCUGCGAAUUCUGCUGU [A10U U26A] | 0.917
GGGGGCCACUGCAGAAGCGUUCACGCCGCGGCCCCUGUCAGAUUCUGGUGAAUCUGCGAAUUCUGCUGU [A10U U26C] | 0.986
GGGGGCCACUGCAGAAGCGCUCACGUCGCGGCCCCUGUCAGAUUCUGGUGAAUCUGCGAAUUCUGCUGU [A10U U20C] | 0.232
GGGGGCCACUGCAGAAGCGGUCACGUCGCGGCCCCUGUCAGAUUCUGGUGAAUCUGCGAAUUCUGCUGU [A10U U20G] | 0.19
GGGGGCCACUGCAGAAGCGAUCACGUCGCGGCCCCUGUCAGAUUCUGGUGAAUCUGCGAAUUCUGCUGU [A10U U20A] | 0.122
GGGGGCCACUGCAGAAGCGUUCACGUCGCGGCCCCUGUCAGAUUCUGGUCAAUCUGCGAAUUCUGCUGU [A10U G50C] | 1
GGGGGCCACUGCAGAAGCGUUCACGUCGCGGCCCCUGUCAGAUUCUGGUAAAUCUGCGAAUUCUGCUGU [A10U G50A] | 0.978
GGGGGCCACUGCAGAACCGUUCACGUCGCGGCCCCUGUCAGAUUCUGGUGAAUCUGCGAAUUCUGCUGU [A10U G17C] | 0.168
GGGGGCCACUGCAGAAUCGUUCACGUCGCGGCCCCUGUCAGAUUCUGGUGAAUCUGCGAAUUCUGCUGU [A10U G17U] | 0.512
GGGGGCCACUGCAGAAGCGUUCACUUCGCGGCCCCUGUCAGAUUCUGGUGAAUCUGCGAAUUCUGCUGU [A10U G25U] | 0.162
GGGGGCCACUGCAGAAGCGUUCACCUCGCGGCCCCUGUCAGAUUCUGGUGAAUCUGCGAAUUCUGCUGU [A10U G25C] | 0.155
GGGGGCCACUGCAGAAGCGUUCACGUCGCGGCCCCUGUCAGAUUCUGGUGAAUUUGCGAAUUCUGCUGU [A10U C54U] | 1.01
GGGGGCCACUGCAGAAGCGUUCACGUCGCGGCCCCUGUCAGAUUCUGGUGAAUCUGCGAAUUCUGUUGU [A10U C66U] | 1.01
GGGGGCCACUGCAGAAGCGUUCACGUCGCGGCCCCUGUCAGAUUCGGGUGAAUCUGCGAAUUCUGCUGU [A10U U46G] | 1.01
